The Immune Epitope Database (IEDB)

Legend:
[1] = molecular target: HLA-A*68:02; assay: IEDB peptide-MHC binding, purified MHC/competitive/radioactivity; filed as Kd, often an IC50 or EC50 that approximates it; ≥ and ≤ were set here for values at or beyond the usual limits of such assays
[2] = molecular target: HLA-A*26:01; assay: IEDB peptide-MHC binding, purified MHC/direct/fluorescence; filed as Kd, often an IC50 or EC50 that approximates it; ≥ and ≤ were set here for values at or beyond the usual limits of such assays
[3] = molecular target: HLA-A*23:01; assay: IEDB peptide-MHC binding, purified MHC/competitive/radioactivity; filed as Kd, often an IC50 or EC50 that approximates it; ≥ and ≤ were set here for values at or beyond the usual limits of such assays; conditions: source organism: Dengue virus 2 Jamaica/1409/1983
[4] = molecular target: HLA-A*24:02; assay: as above; conditions: source organism: Dengue virus 2 Jamaica/1409/1983
[5] = molecular target: HLA-B*44:03; assay: as above
[6] = molecular target: HLA-A*32:01; assay: as above
[7] = molecular target: HLA-A*01:01; assay: as above; conditions: source organism: Mammarenavirus guanaritoense
[8] = molecular target: HLA-A*26:01; assay: as above; conditions: source organism: Mammarenavirus guanaritoense
[9] = molecular target: HLA-A*29:02; assay: as above; conditions: source organism: Mammarenavirus guanaritoense
[10] = molecular target: HLA-A*30:01; assay: as above; conditions: source organism: Mammarenavirus guanaritoense
[11] = molecular target: HLA-A*30:02; assay: as above; conditions: source organism: Mammarenavirus guanaritoense
[12] = molecular target: HLA-A*11:01; assay: IEDB peptide-MHC binding, purified MHC/direct/fluorescence; filed as Kd, often an IC50 or EC50 that approximates it; ≥ and ≤ were set here for values at or beyond the usual limits of such assays; conditions: source organism: SARS-CoV1
[13] = molecular target: HLA-B*15:01; assay: as above; conditions: source organism: SARS-CoV1
[14] = molecular target: HLA-B*27:05; assay: as above; conditions: source organism: SARS-CoV1
[15] = molecular target: HLA-A*02:02; assay: IEDB peptide-MHC binding, purified MHC/competitive/radioactivity; filed as Kd, often an IC50 or EC50 that approximates it; ≥ and ≤ were set here for values at or beyond the usual limits of such assays
[16] = molecular target: HLA-A*02:03; assay: as above
[17] = molecular target: HLA-A*02:06; assay: as above
[18] = molecular target: HLA-B*40:01; assay: as above
[19] = molecular target: HLA-B*44:02; assay: as above; conditions: source organism: Dengue virus 4 Philippines/H241/1956
[20] = molecular target: HLA-A*02:01; assay: as above; conditions: source organism: Hepatitis C virus (isolate BK)
[21] = molecular target: HLA-B*57:01; assay: IEDB peptide-MHC binding, purified MHC/direct/fluorescence; filed as Kd, often an IC50 or EC50 that approximates it; ≥ and ≤ were set here for values at or beyond the usual limits of such assays
[22] = molecular target: HLA-B*58:01; assay: as above; conditions: source organism: Vibrio vulnificus YJ016
[23] = source organism: Dengue virus 4 Philippines/H241/1956
[24] = source organism: Dengue virus 2 Jamaica/1409/1983
[25] = source organism: Dengue virus 1 Brazil/97-11/1997
[26] = source organism: Vaccinia virus WR
[27] = source organism: SARS coronavirus Tor2
[28] = source organism: Hepatitis C virus (isolate BK)

QIHLAIMAV was tested. Which Kd [1, 23] did it give?
Its Kd is 287 nM.

For QTDPLWQKY, which Kd ([2]; source organism: Vibrio vulnificus CMCP6) is on record?
Its Kd is 2780 nM.

QWFLDLPLPW was tested. Which Kd [3] did it give?
The Kd was 11.7 nM.

And the Kd [4]?
Its Kd is 115 nM.

And the Kd [5, 24]?
The Kd was 2780 nM.

For RETACLGKSY, which Kd [5, 25] is on record?
The Kd was 70.3 nM.

How did the Kd ([6]; source organism: Dengue virus 4 Dominica/814669/1981) turn out when RLENVMWKQI was run?
Its Kd is 1840 nM.

For SEIPNLDIIG, which Kd [5, 24] is on record?
The Kd was 1090 nM.

SIYGFGVTF was tested. Which Kd [6, 26] did it give?
Its Kd is 0.113 nM.

SSKNQTWQIE was tested. Which Kd [6, 23] did it give?
Its Kd is at least 31600 nM.

SVSGTFVAEF was tested. Which Kd [7] did it give?
The Kd was at least 45200 nM.

And the Kd [8]?
Its Kd is 3070 nM.

And the Kd [9]?
Its Kd is 9060 nM.

And the Kd [10]?
The Kd was at least 40000 nM.

And the Kd [11]?
Its Kd is 7910 nM.

What about the Kd ([6]; source organism: Mammarenavirus guanaritoense) of the same sequence?
The Kd was 4410 nM.

TEAKMLLDNI was tested. Which Kd [5, 25] did it give?
Its Kd is 617 nM.

With TLMNVITLV as the sequence, how does the Kd [12] read?
The Kd was at least 26900 nM.

And the Kd ([2]; source organism: SARS-CoV1)?
Its Kd is 1120 nM.

What about the Kd [13] of the same sequence?
Its Kd is 6120 nM.

What about the Kd [14] of the same sequence?
Its Kd is 10100 nM.

And the Kd [15, 27]?
Its Kd is 0.34 nM.

And the Kd [16, 27]?
Its Kd is 0.251 nM.

What about the Kd [17, 27] of the same sequence?
The Kd was 0.697 nM.

TVIFQTVVI was tested. Which Kd [6, 26] did it give?
Its Kd is 569 nM.

With VEDYGFGIF as the sequence, how does the Kd [18, 25] read?
The Kd was 388 nM.

For VEMGEAAAI, which Kd [18, 23] is on record?
The Kd was 134 nM.

And the Kd [19]?
Its Kd is 12.9 nM.

And the Kd [5, 23]?
The Kd was 27.7 nM.

Which Kd [20] does the source give for VLTDFKTWL here?
The Kd was 4.06 nM.

And the Kd [15, 28]?
The Kd was 1.56 nM.

What about the Kd [16, 28] of the same sequence?
The Kd was 7.3 nM.

What about the Kd [17, 28] of the same sequence?
The Kd was 140 nM.

What about the Kd [1, 28] of the same sequence?
The Kd was 2300 nM.

Which Kd ([21]; source organism: dengue virus type 3) does the source give for VSGKLIHEW here?
The Kd was 43.5 nM.

WELVDKERAL was tested. Which Kd [18, 23] did it give?
The Kd was 24 nM.

With WMSPTYQSW as the sequence, how does the Kd ([21]; source organism: Vibrio vulnificus YJ016) read?
Its Kd is 62.4 nM.

What about the Kd [22] of the same sequence?
The Kd was 8.3 nM.

With WRFQGSWNTG as the sequence, how does the Kd [6, 25] read?
The Kd was at least 49000 nM.
